For 2 proteins, Km results are on record in article PMC8617651, “Cloning, Expression and Characterization of UDP-Glucose Dehydrogenases” (Life, 2021).

Test in all cases: UDP-GlcA formation by UHPLC, Michaelis-Menten fit, crude extract
Common to all, as to conditions: 0.5 mM NAD+, 50 mM Tris-HCl pH 8.0, 30 °C, 0.5 g/L extract protein, 1-5 mM UDP-Glc

Substrate in series [1]: O=c1ccn([C@@H]2O[C@H](CO[P@@](=O)(O)O[P@@](=O)(O)O[C@H]3O[C@H](CO)[C@@H](O)[C@H](O)[C@H]3O)[C@@H](O)[C@H]2O)c(=O)[nH]1
It counts as biochemical, Capra hircus. The source says:
UDP-GlcA formation by UHPLC, Michaelis-Menten fit, crude extract on ChUGD

Substrate in series [2]: O=c1ccn([C@@H]2O[C@H](CO[P@@](=O)(O)O[P@@](=O)(O)O[C@H]3O[C@H](CO)[C@@H](O)[C@H](O)[C@H]3O)[C@@H](O)[C@H]2O)c(=O)[nH]1
It is filed as biochemical, Zymomonas mobilis. The source says: (§1) UDP-GlcA formation by UHPLC, Michaelis-Menten fit, crude extract on ZmUGD

Substrate in series [3]: O=c1ccn([C@@H]2O[C@H](CO[P@@](=O)(O)O[P@@](=O)(O)O[C@H]3O[C@H](CO)[C@@H](O)[C@H](O)[C@H]3O)[C@@H](O)[C@H]2O)c(=O)[nH]1
It counts as biochemical, Zymomonas mobilis.
Description: as §1
The source holds these as a separate data set.

B1: ChUGD (Capra hircus) (protein)
chain: MFEIKKICCIGAGYVGGPTCSVIAHMCPEIRVTVVDINESRINAWNSPTLPIYEPGLKEVVESCRGKNLFFSTNIDDAIKEADLVFISVNTPTKTYGMGKGRAADLKYIEACARRIVQNSHGYKIVTEKSTVPVRAAESIRRIFDANTKPNLNLQVLSNPEFLAEGTAIKDLKNPDRVLIGGDETPEGQRAVQALCAVYEHWVPREKILTTNTWSSELSKLTANAFLAQRISSINSISALCEATGADVEEVATAIGMDQRIGSKFLKASVGFGGSCFQKDVLNLVYLCEALNLPEVARYWQQVIDMNDYQRRRFASRIIDSLFNTVTDKKIAILGFAFKKDTGDTRESSSIYISKYLMDEGAHLHIYDPKVPREQIVVDLSHPGVSKDDQVARLVTISKDPYEACDGAHAVVICTEWDMFKELDYERIHKKMLKPAFIFDGRRVLDGLHNELQTIGFQIETIGKKVSSKRIPYAPSGEIPKFSLQDMPNKKPRV
notes: codon-optimized synthetic gene, N-terminal 6xHis tag, expressed in S. cerevisiae, crude soluble cell extract
By Km is commonly meant the substrate concentration at which the rate is half of its maximum. Consider B1, for which the Km in series [1] is listed as 841 µM.

B2: ZmUGD (Zymomonas mobilis) (protein)
chain: MRITMIGSGYVGLVSGACFSDFGHNVICVDHDQEKIALLQKGVMPIYEPGLADMVANNVKAGRLSFSNDLASSVKDADAVFIAVGTPSRRGDGHADLSYVFAAAKEIAASVSDNTVVVDKSTVPVGTGDEVERIIREIAPDKKIWVASNPEFLREGAAIGDFKRPDRIVIGTENPEAREIMQEIYRPLYLNQSPILFTSRRSAELIKYASNAFLATKITFINEMADLCEAVGGDVQDVARGIGADNRIGSKFLHAGPGYGGSCFPKDTLALLKTAENFATPLRVVESVVTANNIRKRAMARKVLQAIGKDMRGQKIGLLGLTFKPNTDDMRDAPSLALIQGLEDAGAIIHAYDPEGMTQARPLLPNVVFEDEPYKVAEKAEALVIVTEWDAFRALDLKRIAGLLKTPLLLDLRNIYTEEEAKKAGLVYHGIGRPHAG
notes: N-terminal 6xHis tag (pRSFDuet-1), expressed in E. coli BL21 (DE3), crude soluble cell extract (host has a predicted own UGD)
For the protein B2, the figures for the Michaelis-Menten constant (Km) in series [2] and in series [3] were 2586 µM and 1234 µM, respectively.
